The values below come from patent US20010016194A1, “COMPOUNDS THAT INHIBIT THE BINDING OF RAF-1 OR 14-3-3 PROTEINS TO THE BETA CHAIN OF IL-2 RECEPTOR, AND PHARMACEUTICAL COMPOSITIONS CONTAINING SAME” (priority 1999, published 2001).

The target of the assay is (His)6-Raf-1 protein (UniProt P04049). Kind of assay: totally cell-free pull-down, anti-Raf-1 immunoblot, densitometry. A general note: In western blotting, separated proteins are transferred to a membrane and probed.

B1: FLAG-HMK-IL-2Rβ chain containing only the proline rich C-terminal (CT+) (receptor, not shown: small tags and cut ends)
chain: QPLSGEDDAYCTFPSRDDLLLFSPSLLGGPSPPSTAPGGSGAGEERMPPSLQERVPRDWDPQPLGPPTPGVPDLVDFQPPPELVLREAGEEVPDAGPREGVSFPWSRPPGQGEFRALNARLPLNTDAYLSLQELQGQDPTHLV
For B1, the % binding to Raf-1 proteins (of the positive control) lay within 0 to 10%.
